To fix the notation:
B1: PRT-543 (protein)
chain: MANQEIRYSKNENPNVTIKWVHGIGEPTQSEKEKIEFWWYETTTTKFFNNRKVDPLGDGNQCWAKTDSNMLHWWFVQNEENINQYIEKKNITGKINFNGEQMFDVKEGIDDNQEPEKSYIANTFRTKKAHNLSTKHKGDYIINGLSWYLYGLNNFKNAHGPTPVKKKPKFYGPALFKDVFNRGDGNTPIIVETDFKEYTKKEFEDTLSAALDSKKAIGINIYGSNVDYQHAITLWGAAFDEEENIIAIYVVDNNFKFENRIFPYGIWYEKEGRPYLFNYEINSFVKNRYVGEITTLDKGEAQWQETNLEHHHHHH
B2: PRT-404 (protein)
chain: MVTSVWTKGVTPPADFTQGEDVFHAPYVANQGWYDITKTFNGKDDLLCGAATAGNMLHWWFDQNKEYIEAYLKKHPEKQKIMFGDQELLDVRKAINTKGSQKNSELFNYFRDKAFPNLSARRLGVMPDLVLDMFINGYYLNVTKTQTTDVNRTYQEKDKRGGIFDAVFTRGDQSKLLTSRHDFKEKGLKEISDLIKQELTEGKALGLSHTYANVRIGHVINLWGADFDSDGNLKAIYVTDSDSNASIGMKKYFVGVNSAGKVAISAKEIKEDNIGAQVLGLFTLSTGQDIWNQTN
B3: PRT-412 (protein)
chain: MVTSVWTKGVTPPADFTQGEDVFHAPYVANQGWYDITKTFNGKDDLLCGAATAGNMLHWWFDQNKEYIEAYLKKHPEKQKIMFGDQELLDVRKAINTKGSQKNSELFNYFRDKAFPNLSARRLGVMPDLVLDMFINGYYLNVTKTQTTDVNRTYQEKDKRGGIFDAVFTRGDQSKLLTSRHDFKEKGLKEISDLIKQELTEGKALGLSHTYANVRINHVINLWGADFDSDGNLKAIYVTDSDSNASIGMKKYFVGVNAAGKVAISAKEIKEDNIGAQVLGLFTLSTGQDIWNQTN
B4: PRT-405 (protein)
chain: MVTSVWTKGVTPPADFTQGEDVFHAPYVANQGWYDITKTFNGKDDLLCGAATAGNMLHWWFDQNKEYIEAYLKKHPEKQKIMFGDQELLDVRKAINTKGSQKNSELFNYFRDKAFPNLSARRLGVMPDLVLDMFINGYYLNVTKTQTTDVNRTYQEKDKRGGIFDAVFTRGDQSKLLTSRHDFKEKGLKEISDLIKQELTEGKALGLSHTYANVRINHVINLWGADFDSDGNLKAIYVTDSDSNASIGMKKYGVGVNSAGKVAISAKEIKEDNIGAQVLGLFTLSTGQDIWNQTN
B5: PRT-397 (protein)
chain: MVTSVWTKGVTPPADFTQGEDVFHAPYVANQGWYDITKTFNGKDDLLCGAATAGNMLHWWFDQNKEYIEAYLKKHPEKQKIMFGDQELLDVRKAINTKGSQKNSELFNYFRDKAFPNLSARRLGVMPDLVLDMFINGYYLNVTKTQTTDVNRTYQEKDKRGGIFDAVFTRGDQSKLLTSRHDFKEKGLKEISDLIKQELTEGKALGLSHTYANVGINHVINLWGADFDSDGNLKAIYVTDSDSNASIGMKKYFVGVNSAGKVAISAKEIKEDNIGAQVLGLFTLSTGQDIWNQTN
B6: PRT-381 (protein)
chain: MVTSVWTKGVTPPTNFTYGEDVLHAPYVANQGWYDITKTFNGKDDLLCGAATAGNMLHWWFDQNKEQIENYLKKHPEKQKINFNGEQMFDVKEAIDTKDSQLDSKLFEYFKEKAFPYLSTKHLGVFPDHVIDMFINGYRLSLTNHGPTPVKRGSKDPRGGIFDAVFTRGDQSKLLTNRHDFKEKTLKEISDLIKQELTEGKALGISHTYANVRINHVINLWGADFDAEGNLEAIYVTDSDSNPSIGMKKYFVGVNSNGKVAISAKEIEEDNIGAQVLGLFTLSTGQDIWNQTN
B7: PRT-389 (protein)
chain: MVTSVWTKGVTPPTNFTYGEDVLHAPYVANQGWYDITKTFNGKDDLLCGAATAGNMLHWWFDQNKEQIENYLKKHPEKQKINFKGEQMFDVKEAIDTKDSQLDSKLFEYFKEKAFPYLSTKHLGVFPDHVIDMFINGYRLSLTNHGPTPVKRGSKDPRGGIFDAVFTRGDQSKLLTNRHDFKEKTLKEISDLIKQELTEGKALGISHTYANVRINHVINLWGADFDAEGNLEAIYVTDSDSNASIGMKKYFVGVNSNGKVAISAKEIEEDNIGAQVLGLFTLSTGQDIWNQTN
B8: PRT-578 (protein)
chain: MANQEIRYSKATPKVITSVWTKGVTPPEDFTYNEDVFHAPYLPNQGWYDITKTFNGKDDLLCGAATAGNMLHWWFDQNKEQIERYLKEHPEKQKINFNGEQMFDVKEAIDTKDSQTNSKLFEYFKDKAFPYLSTKHLGVFPDHVIDMFINGYRLSLTNHGPTPVKEQNKDPRGGIFDAVFTRGDQSKLLTSRHDFKEKTLKEISDLIKQELKEGKALGLSHTYANVRINHVINLWGADFDAEGNLEAIYVTDSDSNASIGMKKYYVGVNSAGKVAISAKEIEGDNIGAQVLGLFTLSTGKDIWEQTNLEHHHHHH
B9: PRT-420 (protein)
chain: MTITSVWTKGVTPPTPEDFRYNNEDVLHAPYVANQGWYDITKTFDGKDNLLCGAATAGNMLHWWFDQNKEEIERYLKKHPEKQKIIFNNQEWFDVKAAIDTKDSQTNSKLFNYFRDKAFPNLSARQLGVMPDLVLDMFINGYYLNLGKTQSTDVNRPYQDKDKRGGIFDAVFTRGDQTTLLTARHDLKNKGLNEISDLIKQELTEGKALALSHTYANVRINHVINLWGADFDAEGNLIAIYVTDSDANASIGMKKYFVGVNANGKVAISAKKIEGDNIGAQVLGLFTLSTGQDIWQKLS
B10: PRT-421 (protein)
chain: MTITSVWTKGVTPPTPEDFRYNNEDVLHAPYVANQGWYDITKTFDGKDNLLCGAATAGNMLHWWFDQNKEEIERYLKKHPEKQKIIFNNQELFDVKAAIDTKDSQTNSKLFDYFRDKAFPNLSARQLGVMPDLVLDMFINGYYLNLGKTQSTDVNRPYQDKDKRGGIFDAVFTRGDQTTLLTARHDLKNKGLNEISDLIKQELTEGKALALSHTYANVRINHVINLWGADFDAEGNLIAIYVTDSDANASIGMKKYFVGVNANGKVAISAKKIEGDNIGAQVLGLFTLSTGQDIWQKLS
B11: PRT-428 (protein)
chain: MTITSVWTKGVTPPTPEDFRYNNEDVLHAPYVANQGWYDITKTFDGKDNLLCGAATAGNMLHWWFDQNKEEIERYLKKHPEKQKIIFNNQELFDVKAAIDTKDSQTNSKLFNYFRDKAFPNLSARQLGVMPDLVLDMFINGYYLNLGKTQSTDVNRPYQDKDKRGGIFDAVFTRGDQTTLLTARHDLKNKGLNEISDLIKQELTEGKALALSHTYANVRINHVINLWGADFDAEGNLIAIYVTDSDTNASIGMKKYFVGVNANGKVAISAKKIEGDNIGAQVLGLFTLSTGQDIWQKLS
B12: PRT-429 (protein)
chain: MTITSVWTKGVTPPTPEDFRYNNEDVLHAPYVANQGWYDITKTFDGKDNLLCGAATAGNMLHWWFDQNKEEIERYLKKHPEKQKIIFNNQELFDVKAAIDTKDSQTNSKLFNYFRDKAFPNLSARQLGVMPDLVLDMFINGYYLNLGKTQSTDVNRPYQDKDKRGGIFDAVFTRGDQTTLLTARHDLKNKGLNEISDLIKQELTEGKALALSHTYANVRINHVINLWGADFDAEGNLIAIYVTDSDARASIGMKKYFVGVNANGKVAISAKKIEGDNIGAQVLGLFTLSTGQDIWQKLS
B13: PRT-413 (protein)
chain: MTITSVWTKGVTPPTPEDFRENNEDVLHAPYVANQGWYDITKTFDGKDNLLCGAATAGNMLHWWFDQNKEEIERYLKKHPEKQKIIFNNQELFDVKAAIDTKDSQTNSKLFNYFRDKAFPNLSARQLGVMPDLVLDMFINGYYLNLGKTQSTDVNRPYQDKDKRGGIFDAVFTRGDQTTLLTARHDLKNKGLNEISDLIKQELTEGKALALSHTYANVRINHVINLWGADFDAEGNLIAIYVTDSDANASIGMKKYFVGVNANGKVAISAKKIEGDNIGAQVLGLFTLSTGQDIWQKLS

Consider 13 proteins from patent US20250027068.

The data set concerns the target pooled human IgG (human IgG1, 2, 3 and 4).
B1 registered an Enzyme Activity Endpoint Assay: Fab′2 of 0 ng/µL, an Enzyme Activity Endpoint Assay: Fc of 0 ng/µL, an Enzyme Activity Endpoint Assay: IgG of 1470 ng/µL and an Enzyme Activity Endpoint Assay: scIgG of 0 ng/µL.

B2 returned an Enzyme Activity Endpoint Assay (purified): Fab′2 of 0 ng/µL, an Enzyme Activity Endpoint Assay (purified): Fc of 0 ng/µL, an Enzyme Activity Endpoint Assay (purified): IgG of 1580 ng/µL and an Enzyme Activity Endpoint Assay (purified): scIgG of 0 ng/µL.

B3 yielded an Enzyme Activity Endpoint Assay (purified): Fab′2 of 518 ng/µL, an Enzyme Activity Endpoint Assay (purified): Fc of 103 ng/µL, an Enzyme Activity Endpoint Assay (purified): IgG of 0 ng/µL and an Enzyme Activity Endpoint Assay (purified): scIgG of 170 ng/µL.

In turn, B4 came in with an Enzyme Activity Endpoint Assay (purified): Fab′2 of 86 ng/µL, an Enzyme Activity Endpoint Assay (purified): Fc of 218 ng/µL, an Enzyme Activity Endpoint Assay (purified): IgG of 406 ng/µL and an Enzyme Activity Endpoint Assay (purified): scIgG of 558 ng/µL.

B5 registered an Enzyme Activity Endpoint Assay (purified): Fab′2 of 102 ng/µL, an Enzyme Activity Endpoint Assay (purified): Fc of 243 ng/µL, an Enzyme Activity Endpoint Assay (purified): IgG of 93 ng/µL and an Enzyme Activity Endpoint Assay (purified): scIgG of 498 ng/µL.

The protein B6 came in with an Enzyme Activity Endpoint Assay (purified): Fab′2 of 486 ng/µL, an Enzyme Activity Endpoint Assay (purified): Fc of 334 ng/µL, an Enzyme Activity Endpoint Assay (purified): IgG of 0 ng/µL and an Enzyme Activity Endpoint Assay (purified): scIgG of 194 ng/µL.

B7 yielded an Enzyme Activity Endpoint Assay (purified): Fab′2 of 479 ng/µL, an Enzyme Activity Endpoint Assay (purified): Fc of 340 ng/µL, an Enzyme Activity Endpoint Assay (purified): IgG of 32 ng/µL and an Enzyme Activity Endpoint Assay (purified): scIgG of 219 ng/µL.

The protein B8 yielded an Enzyme Activity Endpoint Assay: Fab′2 of 698 ng/µL, an Enzyme Activity Endpoint Assay: Fc of 394 ng/µL, an Enzyme Activity Endpoint Assay: IgG of 0 ng/µL and an Enzyme Activity Endpoint Assay: scIgG of 0 ng/µL.

As to B9, the Enzyme Activity Endpoint Assay (purified): Fab′2 came to 515 ng/µL, the Enzyme Activity Endpoint Assay (purified): Fc came out at 300 ng/µL, the Enzyme Activity Endpoint Assay (purified): IgG is 125 ng/µL and the Enzyme Activity Endpoint Assay (purified): scIgG stood at 0 ng/µL.

As for B10, the Enzyme Activity Endpoint Assay (purified): Fab′2 amounted to 612 ng/µL, the Enzyme Activity Endpoint Assay (purified): Fc stood at 340 ng/µL, the Enzyme Activity Endpoint Assay (purified): IgG was 71 ng/µL and the Enzyme Activity Endpoint Assay (purified): scIgG turned out to be 0 ng/µL.

In the case of B11, the Enzyme Activity Endpoint Assay (purified): Fab′2 amounted to 505 ng/µL, the Enzyme Activity Endpoint Assay (purified): Fc stood at 336 ng/µL, the Enzyme Activity Endpoint Assay (purified): IgG turned out to be 90 ng/µL and the Enzyme Activity Endpoint Assay (purified): scIgG stood at 119 ng/µL.

For the protein B12, the Enzyme Activity Endpoint Assay (purified): Fab′2 worked out at 528 ng/µL, the Enzyme Activity Endpoint Assay (purified): Fc was 348 ng/µL, the Enzyme Activity Endpoint Assay (purified): IgG was 57 ng/µL and the Enzyme Activity Endpoint Assay (purified): scIgG was 171 ng/µL.

On to B13, for which the Enzyme Activity Endpoint Assay (purified): Fab′2 amounted to 485 ng/µL, the Enzyme Activity Endpoint Assay (purified): Fc came to 347 ng/µL, the Enzyme Activity Endpoint Assay (purified): IgG worked out at 14 ng/µL and the Enzyme Activity Endpoint Assay (purified): scIgG amounted to 152 ng/µL.
